{"source": "patent US12077763B2", "about": "“RNA-based control of powdery mildew” (Greenlight Biosciences, Inc., priority 2021, dated 2024)", "molecules": {"B1": {"name": "GS3347 (nucleic acid)", "sense": "GUGAGUAUCAGGUGUAUAAAUAAAACGUAUAAAAAUGUGAUGUUAUAGAUCGACGGUCAAAGAUUUCUAGAGAUUGAGGUACUGGACAUUCCUUCUUCAACCCCUCAAGAAAUUGUUAAGUCGAAAGAUUAGUAAUUCUCAACUCUGAUUAAAAUAAUCGAUAUGUAUGAAGAUAAGCGAGAUGAAUUGAUAAUGUUGUCUAAAAUUUCGAAUUAUGAAUCUUUACAAAAGAGGGUGAGUUGUCGUAUGAUAAAAGGAGCCUGCUCCGAUCUAGAUAGAACACAGCAGGUAAAGUAGAAGUGAUAUCUGCGAGGAGCCUUGACACCAGCAAGGACUCAGUCCGAAGAGUACGAGUUGCUUUCUGGUUUGUUGAAUGAAAGAAGUAGAAAAAAAUAUAA", "antisense": "UUAUAUUUUUUUCUACUUCUUUCAUUCAACAAACCAGAAAGCAACUCGUACUCUUCGGACUGAGUCCUUGCUGGUGUCAAGGCUCCUCGCAGAUAUCACUUCUACUUUACCUGCUGUGUUCUAUCUAGAUCGGAGCAGGCUCCUUUUAUCAUACGACAACUCACCCUCUUUUGUAAAGAUUCAUAAUUCGAAAUUUUAGACAACAUUAUCAAUUCAUCUCGCUUAUCUUCAUACAUAUCGAUUAUUUUAAUCAGAGUUGAGAAUUACUAAUCUUUCGACUUAACAAUUUCUUGAGGGGUUGAAGAAGGAAUGUCCAGUACCUCAAUCUCUAGAAAUCUUUGACCGUCGAUCUAUAACAUCACAUUUUUAUACGUUUUAUUUAUACACCUGAUACUCAC"}, "B2": {"name": "GS3344 (nucleic acid)", "sense": "GACUAUUGUCCUGACUAAACUAUAUACCAUCUGCUAACACGAUCCUCAAAGCAAAAUUUUUAACCGAUGAUCAUAAGUCAUGUAAAAGUUGAAAUUUCAACACACACCAAGAAAAAUAGCCUUGGUCUUUCAAUUUACAGCAUCCAUAUGGAUGCUAUUUUCUUAUAUAUUUCACCUACCUCCUGAGAACUGCAUCAAGAUUCGAGGUCGUUUCUUUAUAUAAUCAUGUCAAAUAAUGCAUGAUAAAUGAGUAAGAGGCUCUAGGCAGUCAAACUCAAAGAAUUGUCUUCAAUUGUAUUGUCAUUUUAUCUCAUUUGAUAAUGAGUUGUAGCCGCAACUCAAAUCAUUUUUCAUUUUUUGAAAAUGAAGUAAAAGACCGGUUUAAAAAAUUAAAUAUC", "antisense": "GAUAUUUAAUUUUUUAAACCGGUCUUUUACUUCAUUUUCAAAAAAUGAAAAAUGAUUUGAGUUGCGGCUACAACUCAUUAUCAAAUGAGAUAAAAUGACAAUACAAUUGAAGACAAUUCUUUGAGUUUGACUGCCUAGAGCCUCUUACUCAUUUAUCAUGCAUUAUUUGACAUGAUUAUAUAAAGAAACGACCUCGAAUCUUGAUGCAGUUCUCAGGAGGUAGGUGAAAUAUAUAAGAAAAUAGCAUCCAUAUGGAUGCUGUAAAUUGAAAGACCAAGGCUAUUUUUCUUGGUGUGUGUUGAAAUUUCAACUUUUACAUGACUUAUGAUCAUCGGUUAAAAAUUUUGCUUUGAGGAUCGUGUUAGCAGAUGGUAUAUAGUUUAGUCAGGACAAUAGUC"}, "B3": {"name": "GS3352 (nucleic acid)", "sense": "UGUAGAGGUGAAGUAGGUGAAAGUUGAUUUGGCGAUGGUAGAGAUGAGUUACUAUUACUGAUAGAAGGUAAAUUUGAGUAAGAUUGCAAAUUUCUAUCAGACGCAGCUGACUGAUCAAGAGUUUGCUCUAAUAAGGAUCUUUCAUGAGCUGAAUGCGCAUAUGUCGGUGACAAAUUUUUGGGAUGAUCGAUAAAGAAUUUUUUGGUUGAAUAGUUGCGAGAGAUUCCAGGUUGUAUUGCAGGUGAUGAAGAAGCUGGUGAAGAAAUGUUGCUUGAGUUGUCAAAAUUGCUACUGUUUGAACCAUUUGUUUUUGCGGAAGGAUACGGGAGUGGUUUACCUUCUUUUGCCAUCCGAAAAACUGGAAGUAAAUCCUCUCUAAGUCGUGUAUAUUCGAAUGU", "antisense": "ACAUUCGAAUAUACACGACUUAGAGAGGAUUUACUUCCAGUUUUUCGGAUGGCAAAAGAAGGUAAACCACUCCCGUAUCCUUCCGCAAAAACAAAUGGUUCAAACAGUAGCAAUUUUGACAACUCAAGCAACAUUUCUUCACCAGCUUCUUCAUCACCUGCAAUACAACCUGGAAUCUCUCGCAACUAUUCAACCAAAAAAUUCUUUAUCGAUCAUCCCAAAAAUUUGUCACCGACAUAUGCGCAUUCAGCUCAUGAAAGAUCCUUAUUAGAGCAAACUCUUGAUCAGUCAGCUGCGUCUGAUAGAAAUUUGCAAUCUUACUCAAAUUUACCUUCUAUCAGUAAUAGUAACUCAUCUCUACCAUCGCCAAAUCAACUUUCACCUACUUCACCUCUACA"}, "B4": {"name": "GS3356 (nucleic acid)", "sense": "CUGGGUGAGUUUUUCGUAACGUCGCUACUUUAUUAACUUGAUCUGCCGUGGAUUUUGGUUGUCUUGUAUCAAUCAAAAGGAGAGGAAGCUUCGGAAACUUCAUUAAAGAUCUUAUGAUUGGCUCCUUUGAAUAGUCGGGCCUCUGAAAUAUAACAGCUUUUCCUUGGGAGGCAACAGUGUUAUCUACUCCUGAAGGGUUUCCAUGGAUACAUAUUUCUCCUACAUAAGCCCACAUAUUAAUGCGGCUUAUUUGGGUAUGUGCUUCUUCAAUGGGUUGGUCCUCAUGAGGCCCAGAAAGCGCUCUUACCUGUAAUAAGAGCGCAGCAGCUAGACACACAGUAAUAGAUGCA", "antisense": "UGCAUCUAUUACUGUGUGUCUAGCUGCUGCGCUCUUAUUACAGGUAAGAGCGCUUUCUGGGCCUCAUGAGGACCAACCCAUUGAAGAAGCACAUACCCAAAUAAGCCGCAUUAAUAUGUGGGCUUAUGUAGGAGAAAUAUGUAUCCAUGGAAACCCUUCAGGAGUAGAUAACACUGUUGCCUCCCAAGGAAAAGCUGUUAUAUUUCAGAGGCCCGACUAUUCAAAGGAGCCAAUCAUAAGAUCUUUAAUGAAGUUUCCGAAGCUUCCUCUCCUUUUGAUUGAUACAAGACAACCAAAAUCCACGGCAGAUCAAGUUAAUAAAGUAGCGACGUUACGAAAAACUCACCCAG"}, "B5": {"name": "GS3346 (nucleic acid)", "sense": "GUAGAGUUGAGCUUGGCCCUAAUGGCGUAAAUAAGAUCCAUGAAGUGGGAAACCUUGCUCCUGAAGAACAAGGUCUUUUAAAAGCUGCUCUAGUUGAUUUGUUAAAGAAUAUCGAAAAAGGAAUCAAAUUUGUUAACCAGAACCCCGGUGAAUAAAUAAAAUGUUAUUCAAUUUACAAUCUGUUGUUUUUUGAUCGUGGAUACCUUGAUAUUCAGUAACGAGGGAGAAUCAUUCUCCUGUCCCAAAAAAGUACUAUCUACUAUCUUAAAUUUUAUGGAAUCUUGAAUUUGUCCAAUGUAUCAAUAGAAAAAUUCUUUCAAAUUACAAGUCAAAAGUAUUAUGAAAAUUAAAAAGGACUAAUCCUCUUACAUAGAUAUAUAUAAAUAUA", "antisense": "UAUAUUUAUAUAUAUCUAUGUAAGAGGAUUAGUCCUUUUUAAUUUUCAUAAUACUUUUGACUUGUAAUUUGAAAGAAUUUUUCUAUUGAUACAUUGGACAAAUUCAAGAUUCCAUAAAAUUUAAGAUAGUAGAUAGUACUUUUUUGGGACAGGAGAAUGAUUCUCCCUCGUUACUGAAUAUCAAGGUAUCCACGAUCAAAAAACAACAGAUUGUAAAUUGAAUAACAUUUUAUUUAUUCACCGGGGUUCUGGUUAACAAAUUUGAUUCCUUUUUCGAUAUUCUUUAACAAAUCAACUAGAGCAGCUUUUAAAAGACCUUGUUCUUCAGGAGCAAGGUUUCCCACUUCAUGGAUCUUAUUUACGCCAUUAGGGCCAAGCUCAACUCUAC"}, "B6": {"name": "GS1798: dsRNA trigger SEQ ID NO 192; gene target Tip elongation aberrant protein 1 (nucleic acid)", "DNA": "AAATGTGTACCACCTTCTTGATGTAATTCTGAACGCAGCCAAATCTCCCAAGTCAGATCCATCGTCAGCCCGTCCTCCAAAGACATACATCACATCGTCAACAATTGCTGCAGCATGACCTTCTCTTGGAACCGGTATATATCCTATGCAGTCCAAAAGAGTCCAGGAGTTCGGTATCGGATCATAACACCAAACATCGTTATACCATTGAAGACCATTTGTTCCGCCAAACAAGTAAAGCTTTTCATTATATGTCACAACTGAGTGATTTGTTCTAGCTGATGGTATTTGTCCTACTGGGGGTCCACCATCCTCACTATTTTTAATGAGAATTTCCCACCTGTTCGTAGGGACTTGCAAAAGATTCAAATCAAAAGCCACAAGGTCATTCATAAAATAACCCTCTACTTGCCCCCCGAATACGTAGATTTTAGACCCTAGTATATTGAGAGAATGACCATAACGCCCCGCGGGCCGTGGCCCGGCAGGTATAGCTCTGGACCATTGTCGGGTAGAGGTATTAAGTAAGTAAAGAGTTTCATCTAATACGTCAGAATCGTCCATTTTAGTATCCCCACCATATACAATAAAAGCATTT"}, "B7": {"name": "GS3351 (nucleic acid)", "sense": "AAGAAACAGACAGAUGAUUUUAUCAUAUUUCAAGGUAUAUUUGAAUUUAGUGAAUCUAGUUUAAUAUAAUUUAAAUUUAUUCGAUUAUCACCAACCUAUGAAAAAAUCAUUUCAUCCCAAUUCCGACAUGAAUUUGUAGUGUCUGACAGGUUUGUUUAAAAACGAAGUGGUGUAAAGAACCAUCGAUUCUUUCCACUUAAAUAUCUCUCCUCUAAGGCUUUCUUAACCACUUUCUUGGCAUCCUCUCGCUGCGAUACUUCCUUGAAUGUUUCUGUAGAUAUUACGUUUUUAAGACCUUCUAAUUCGAGUGUGUAACGUGUUGGCAUAAUAUGAUUAUAAUUGAUAACUUUUAUAAAA", "antisense": "UUUUAUAAAAGUUAUCAAUUAUAAUCAUAUUAUGCCAACACGUUACACACUCGAAUUAGAAGGUCUUAAAAACGUAAUAUCUACAGAAACAUUCAAGGAAGUAUCGCAGCGAGAGGAUGCCAAGAAAGUGGUUAAGAAAGCCUUAGAGGAGAGAUAUUUAAGUGGAAAGAAUCGAUGGUUCUUUACACCACUUCGUUUUUAAACAAACCUGUCAGACACUACAAAUUCAUGUCGGAAUUGGGAUGAAAUGAUUUUUUCAUAGGUUGGUGAUAAUCGAAUAAAUUUAAAUUAUAUUAAACUAGAUUCACUAAAUUCAAAUAUACCUUGAAAUAUGAUAAAAUCAUCUGUCUGUUUCUU"}}, "data": [{"tested_on": "E. necator", "experiment": "Leaf disc assay, dry inoculum (settling tower), decrease in disease severity / hyphal growth (Example 2)", "conditions": "decrease in disease severity (hyphal growth) relative to untreated control; time point 1 (untreated control hyphal growth ≥50%); value ± SE", "units": {"% decrease =/− SE TP1": "%"}, "values": [{"molecule": "B1", "% decrease =/− SE TP1": "2 ± 7"}, {"molecule": "B2", "% decrease =/− SE TP1": "1 ± 7"}, {"molecule": "B3", "% decrease =/− SE TP1": "6 ± 4"}, {"molecule": "B4", "% decrease =/− SE TP1": "5 ± 5"}, {"molecule": "B5", "% decrease =/− SE TP1": "3 ± 6"}, {"molecule": "B6", "% decrease =/− SE TP1": "44 ± 4"}, {"molecule": "B7", "% decrease =/− SE TP1": "4 ± 7"}]}, {"tested_on": "E. necator", "experiment": "Leaf disc assay, dry inoculum (settling tower), decrease in disease severity / hyphal growth (Example 2)", "conditions": "decrease in disease severity (hyphal growth) relative to untreated control; time point 2; value ± SE", "units": {"% decrease =/− SE TP2": "%"}, "values": [{"molecule": "B6", "% decrease =/− SE TP2": "47 ± 5"}]}]}
